Biological target: T1, cyclic citrullinated peptide (CCP) derived from filaggrin (X stands for citrulline (9th residue of HQCHQESTXGRSRGRCGRSGS); a chemical bond between the two underlined Cs (cyclic))
T1 construct: Synthesized peptide, coated on ELISA plates at 250 ng/well; also called Filaggrin-derived CCP; CCP peptide
T1 peptide: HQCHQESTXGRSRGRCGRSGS
Test: ELISA, coated CCP peptide, hybridoma supernatant diluted 1:1000
Procedure: For hybridoma selection, each of the CCP peptide and the CRP peptide, both previously prepared, was diluted to a final concentration of 250 ng/well in PBS or a carbonate buffer. The dilution was allocated in an amount of 50 μl into 96-well plates and incubated for 2 hrs at room temperature or overnight at 4° C. Each well was washed with 200 μl of PBS. To this end, the plates were overturned to decant the solution out of all the wells, and then struck down against paper towel to completely remove the remaining solution. […] After 30 min of the incubation, the color development was terminated with a stop solution, and color intensity to was immediately measured at 450 nm in a single point photo mode. […]
Repeated screening of the hybridoma cells against CCP and CRP left two clones 11G1 and 12G1 in the final stage (FIGS. 7 and 8). FIGS. 6 to 8 list binding intensities of anti-CCP antibodies when they recognized and bound to the target peptide CCP in each screening stage of the hybridomas, as measured by absorbance at 450 nm. […] With reference made to these marked values, how effectively each hybridoma clone produced an anti-CCP antibody was analyzed, and selection was made of effective clones which were then cultured many times so that the effective clones producing anti-CCP antibodies only predominated over other clones.

binding result: binds
B1: monoclonal antibody 12G1 produced from the 12G1 hybridoma cell line (accession No. KCLRF-BP-00276) (antibody, V domains shown)
VH: EVKLEESGAELVRPGTSVKISCKASGYGFTNYWLGWIKQRPGHGLEWIGDVYPGSGNTYYNEKFKGKATLTADKSSSTVYMQLSSLTSEDSTVYFCAREGGITTAPYPFGYWGQGTLVTVSA
VL: DIVMTQTPSSMYASLGERVTITCKASQDINSYLSWFQQKPGKSPKTLIYRANRLVDGVPSRFSGSGSGQDYSLTISSLEYEDMGIYYCLQYDEFPWTFGGGTKLEIK
notes: Mouse monoclonal antibody from a hybridoma, detected with anti-mouse IgG; Used as hybridoma supernatant or as purified antibody; also called 12G1 antibody
